Data from publication PMC2948610.

Tests used:
Assay in all cases: thioflavin T fluorescence
[1] = biological target: MSP2_(1–25), recombinant 25-residue peptide corresponding to the entire conserved N-terminal domain of mature MSP2 (Plasmodium falciparum)
[2] = biological target: [F11A,I12A]MSP2_(1–25) (Plasmodium falciparum)
[3] = biological target: [Y7A,Y16A]MSP2_(1–25) (Plasmodium falciparum)

Substance: MSP2_(1–25), recombinant 25-residue peptide corresponding to the entire conserved N-terminal domain of mature MSP2
- lag time of fibril formation [1]: 1 h
- time to maximum ThT fluorescence (fibril formation) [1]: 2 h

Substance: [F11A,I12A]MSP2_(1–25) (peptide)
- lag time of fibril formation [2]: 3.5 h
- time to maximum ThT fluorescence (fibril formation) [2]: 9 h

Substance: [Y7A,Y16A]MSP2_(1–25) (peptide)
- lag time of fibril formation [3]: 1 h
- time to maximum ThT fluorescence (fibril formation) [3]: 2 h
